The series concerns Saccharomyces cerevisiae. The series can be described thus: protein stability index of tFT-peptide fusion (C-terminal peptide) (PSI (0-1 scale)); higher = more stable (slower turnover). To be noted: temperature: 30 C. The protocol:
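MPS profiling in S. cerevisiae of the yeast C-terminome library: the last 12 aa of each annotated ORF are fused to the C-terminus of a sfGFP-mCherry timer, after a GGGS linker. Cells are FACS-sorted into 8 mCherry/sfGFP bins and deep-sequenced. PSI runs from 0 (unstable) to 1 (stable); wild type and das1Δ backgrounds, two technical replicates each.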

The mark [1] stands for this setting: genetic background: das1 deletion.

± gives the standard deviation of the averaged measurements.

On to LHENQLLKWLSK [RRN5 C-terminal 12 aa], for which the protein stability index runs as follows: under setting [1], 0.72567 ± 0.00036; (genetic background: wild type) 0.7 ± 0.008.

In the case of LIDSYCLGGESR [YPL034W C-terminal 12 aa], the protein stability index runs as follows: under setting [1], 0.688 ± 0.018; (genetic background: wild type) 0.697 ± 0.039.

In turn, LIEKNFLSSHAG [YJR071W C-terminal 12 aa] came in with a protein stability index under setting [1] of 0.7159 ± 0.0042 and a protein stability index (genetic background: wild type) of 0.708 ± 0.022.

For LIFQRKYTAKEF [DTR1 C-terminal 12 aa], the protein stability index is, setting by setting: under setting [1], 0.6863 ± 0.004; (genetic background: wild type) 0.678 ± 0.035.

Turning to LIHNFNSRYCHE [LEE1 C-terminal 12 aa], the protein stability index is 0.725 ± 0.0078 under setting [1] and 0.691 ± 0.0088 (genetic background: wild type).

As for LINGTRIMNSIS [VPS33 C-terminal 12 aa], the protein stability index reads like this: under setting [1], 0.684 ± 0.01; (genetic background: wild type) 0.532 ± 0.0095.

In the case of LISFGMGNTQVI [CLN2 C-terminal 12 aa], the protein stability index is 0.699 ± 0.031 under setting [1] and 0.6846 ± 0.004 (genetic background: wild type).

With “LITSHCCYWNKR [YBL039C-A C-terminal 12 aa]”, the protein stability index came to 0.6928 ± 0.0067 under setting [1] and 0.52 ± 0.033 (genetic background: wild type).

Consider LKKIATKFWGKH [TRK2 C-terminal 12 aa], for which the protein stability index under setting [1] was 0.697 ± 0.016 and the protein stability index (genetic background: wild type) turned out to be 0.714 ± 0.066.

The sequence LKNYLEAQIAKK [YPR097W C-terminal 12 aa] returned a protein stability index under setting [1] of 0.692 ± 0.03 and a protein stability index (genetic background: wild type) of 0.721 ± 0.016.

Consider LKPWEGRIYLVK [MAL12 C-terminal 12 aa], for which the protein stability index runs as follows: under setting [1], 0.6483 ± 0.0018; (genetic background: wild type) 0.697 ± 0.022.

Turning to LKQKALVAAKQS [YJR015W C-terminal 12 aa], the protein stability index is, setting by setting: under setting [1], 0.679 ± 0.024; (genetic background: wild type) 0.319 ± 0.03.

LKSIYTSERITI [RAD61 C-terminal 12 aa] yielded a protein stability index under setting [1] of 0.707 ± 0.04 and a protein stability index (genetic background: wild type) of 0.667 ± 0.025.

For the sequence LKTPQEYESKAK [BOL1 C-terminal 12 aa], the protein stability index runs as follows: under setting [1], 0.702 ± 0.02; (genetic background: wild type) 0.753 ± 0.069.

On to “LLAKQLLLLLLR [YER079C-A C-terminal 12 aa]”, for which the protein stability index stood at 0.33 ± 0.018 under setting [1] and 0.342 ± 0.0063 (genetic background: wild type).

For LLEDEDRTYNYT [KCH1 C-terminal 12 aa], the protein stability index runs as follows: under setting [1], 0.6892 ± 0.0059; (genetic background: wild type) 0.718 ± 0.069.

As for LLHYQSWHFSIY [YJL007C C-terminal 12 aa], the protein stability index under setting [1] came to 0.707 ± 0.035 and the protein stability index (genetic background: wild type) was determined as 0.407 ± 0.026.

For LLLAGRKLSLDK [ARK1 C-terminal 12 aa], the protein stability index was 0.694 ± 0.016 under setting [1] and 0.715 ± 0.023 (genetic background: wild type).

As for LLLQFPPYLPHD [LAG2 C-terminal 12 aa], the protein stability index was 0.75 ± 0.019 under setting [1] and 0.7442 ± 0.0048 (genetic background: wild type).

On to “LLPLIYLINKSL [YMR013C-A C-terminal 12 aa]”, for which the protein stability index runs as follows: under setting [1], 0.622 ± 0.014; (genetic background: wild type) 0.199 ± 0.022.

In turn, LLRKHVFPSVPK [VFA1 C-terminal 12 aa] registered a protein stability index under setting [1] of 0.732 ± 0.026 and a protein stability index (genetic background: wild type) of 0.738 ± 0.031.

In the case of LLSAILDPSKSK [MED11 C-terminal 12 aa], the protein stability index was found to be 0.709 ± 0.021 under setting [1] and 0.699 ± 0.046 (genetic background: wild type).

Regarding “LLSLPSSTLTKS [YIL068W-A C-terminal 12 aa]”, the protein stability index worked out at 0.703 ± 0.025 under setting [1] and 0.702 ± 0.0086 (genetic background: wild type).

In the case of LLTYFRKHVKDT [SCC2 C-terminal 12 aa], the protein stability index is, setting by setting: under setting [1], 0.714 ± 0.043; (genetic background: wild type) 0.572 ± 0.054.

Take LLYPVKSESSTV [PDR16 C-terminal 12 aa]: the protein stability index is, setting by setting: under setting [1], 0.68 ± 0.013; (genetic background: wild type) 0.676 ± 0.01.

In the case of LMILGNFMPILN [ERT1 C-terminal 12 aa], the protein stability index came out at 0.6909 ± 0.0037 under setting [1] and 0.5655 ± 0.0049 (genetic background: wild type).

As to LPFQKLKHLIKK [MRX11 C-terminal 12 aa], the protein stability index is, setting by setting: under setting [1], 0.707 ± 0.031; (genetic background: wild type) 0.706 ± 0.046.

For the sequence LPLYYVYQCDMI [YDR094W C-terminal 12 aa], the protein stability index came out at 0.6642 ± 0.0046 under setting [1] and 0.643 ± 0.052 (genetic background: wild type).

Turning to “LPVSDSRCYYIL [YML031C-A C-terminal 12 aa]”, the protein stability index came to 0.6921 ± 0.0021 under setting [1] and 0.343 ± 0.013 (genetic background: wild type).

Turning to LPYRMLIRMYPV [YEL014C C-terminal 12 aa], the protein stability index under setting [1] was found to be 0.5232 ± 0.0025 and the protein stability index (genetic background: wild type) is 0.5345 ± 0.0047.

LQTMSFLMNHLI [YJL032W C-terminal 12 aa] gave a protein stability index under setting [1] of 0.6597 ± 0.0011 and a protein stability index (genetic background: wild type) of 0.23 ± 0.042.

For the sequence LRLKGNAKAPGA [CLC1 C-terminal 12 aa], the protein stability index came out at 0.70418 ± 0.00015 under setting [1] and 0.729 ± 0.012 (genetic background: wild type).

LRTTSSMEKKLN [ALG3 C-terminal 12 aa]: the protein stability index stood at 0.7064 ± 0.00072 under setting [1] and 0.205 ± 0.0049 (genetic background: wild type).

With LSADGIYTAVPN [PAU17 C-terminal 12 aa], the protein stability index runs as follows: under setting [1], 0.695 ± 0.018; (genetic background: wild type) 0.702 ± 0.011.

LSAETGIRGEGE [YIL100W C-terminal 12 aa]: the protein stability index under setting [1] was 0.6849 ± 0.0034 and the protein stability index (genetic background: wild type) was found to be 0.71 ± 0.029.

As to LSKDGIYTAVPN [PAU23 C-terminal 12 aa], the protein stability index is, setting by setting: under setting [1], 0.6917 ± 0.0018; (genetic background: wild type) 0.702 ± 0.0078.

As for LSKKDYSIDSIE [TPO3 C-terminal 12 aa], the protein stability index by setting is: under setting [1], 0.726 ± 0.011; (genetic background: wild type) 0.6981 ± 0.0023.

Turning to LSKMYIGWLPFW [MEC1 C-terminal 12 aa], the protein stability index worked out at 0.7227 ± 0.0057 under setting [1] and 0.6826 ± 0.002 (genetic background: wild type).

Turning to LSLTLVSIIKTA [COG2 C-terminal 12 aa], the protein stability index is, setting by setting: under setting [1], 0.618 ± 0.025; (genetic background: wild type) 0.193 ± 0.0064.

Consider “LSNQNSPLFLYH [YHR175W-A C-terminal 12 aa]”, for which the protein stability index runs as follows: under setting [1], 0.7053 ± 0.0058; (genetic background: wild type) 0.705 ± 0.015.

The sequence “LSPSYSCRYHGR [YPL152W-A C-terminal 12 aa]” came in with a protein stability index under setting [1] of 0.7126 ± 0.0044 and a protein stability index (genetic background: wild type) of 0.6832 ± 0.004.

Turning to LSVIYMGWSPFY [TEL1 C-terminal 12 aa], the protein stability index was determined as 0.716 ± 0.018 under setting [1] and 0.773 ± 0.032 (genetic background: wild type).

As to LSVTLGEGKYHH [CSG2 C-terminal 12 aa], the protein stability index under setting [1] is 0.685 ± 0.03 and the protein stability index (genetic background: wild type) was 0.686 ± 0.034.

In turn, LTVLCVILGYVL [UTR2 C-terminal 12 aa] displayed a protein stability index under setting [1] of 0.5761 ± 0.00066 and a protein stability index (genetic background: wild type) of 0.645 ± 0.048.

With LTWSLAYSGAFS [ACF2 C-terminal 12 aa], the protein stability index was found to be 0.7217 ± 0.0012 under setting [1] and 0.686 ± 0.013 (genetic background: wild type).

For the sequence LVIDQITQLRQQ [COG1 C-terminal 12 aa], the protein stability index under setting [1] came out at 0.6966 ± 0.0015 and the protein stability index (genetic background: wild type) amounted to 0.6158 ± 0.0047.

On to LVIKRRGFEINT [PET122 C-terminal 12 aa], for which the protein stability index stood at 0.66 ± 0.015 under setting [1] and 0.721 ± 0.043 (genetic background: wild type).

Consider LYGKYNYAAQKV [YDL124W C-terminal 12 aa], for which the protein stability index runs as follows: under setting [1], 0.692 ± 0.013; (genetic background: wild type) 0.333 ± 0.014.

LYKRWVPGRNRD [SEN2 C-terminal 12 aa]: the protein stability index reads like this: under setting [1], 0.696 ± 0.0095; (genetic background: wild type) 0.696 ± 0.034.

LYVTVFNRSDEA [AVT7 C-terminal 12 aa] displayed a protein stability index under setting [1] of 0.6773 ± 0.0036 and a protein stability index (genetic background: wild type) of 0.6811 ± 0.0037.

Values taken from the supplement of paper PMC10724198.
